Assay results from patent publication US20090142300A1.

Biological target: T1, wild-type Toll-like receptor 3 (TLR3), homo sapiens (homo sapiens) (UniProt O15455)
T1 sequence: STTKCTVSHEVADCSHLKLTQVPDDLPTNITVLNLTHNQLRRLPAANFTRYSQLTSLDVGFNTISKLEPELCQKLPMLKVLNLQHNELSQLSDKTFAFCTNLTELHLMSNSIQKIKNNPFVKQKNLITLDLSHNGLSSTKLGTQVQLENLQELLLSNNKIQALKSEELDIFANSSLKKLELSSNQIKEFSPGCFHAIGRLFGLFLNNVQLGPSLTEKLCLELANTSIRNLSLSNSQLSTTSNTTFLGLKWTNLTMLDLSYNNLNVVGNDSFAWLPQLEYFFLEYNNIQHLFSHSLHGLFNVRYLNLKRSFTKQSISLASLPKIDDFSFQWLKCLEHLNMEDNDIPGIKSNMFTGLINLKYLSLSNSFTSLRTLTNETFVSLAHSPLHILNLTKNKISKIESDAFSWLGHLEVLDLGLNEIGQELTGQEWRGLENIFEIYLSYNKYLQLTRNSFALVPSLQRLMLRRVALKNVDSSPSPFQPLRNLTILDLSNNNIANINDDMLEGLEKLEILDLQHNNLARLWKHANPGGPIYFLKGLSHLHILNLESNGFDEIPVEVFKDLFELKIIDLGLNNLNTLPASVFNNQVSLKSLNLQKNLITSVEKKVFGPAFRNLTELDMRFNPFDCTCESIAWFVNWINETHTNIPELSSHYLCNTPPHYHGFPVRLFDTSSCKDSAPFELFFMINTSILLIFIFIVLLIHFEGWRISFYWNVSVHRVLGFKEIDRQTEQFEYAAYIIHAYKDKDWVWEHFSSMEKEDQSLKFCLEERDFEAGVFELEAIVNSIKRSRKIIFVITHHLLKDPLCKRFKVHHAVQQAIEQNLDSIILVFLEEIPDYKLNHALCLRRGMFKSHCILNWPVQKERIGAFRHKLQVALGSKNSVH
Experiment: cell-based or functional assay

| Substance | wild-type TLR3 activity with the mutant at six molar excess of WT (dominant negative assay) | other results |
| --- | --- | --- |
| TLR3 mutant E442K (from UniProt O15455 24-904) (receptor) |  | wild-type TLR3 activity with the mutant at six molar excess to the WT (dominant negative assay): 51% |
| TLR3 mutant N466A (from UniProt O15455 24-904) (receptor) | 17% |  |
| TLR3 mutant C696A (from UniProt O15455 24-904) (receptor) | 76% |  |
| TLR3 mutant H539E (from UniProt O15455 24-904) (receptor) | 16% |  |
| K467EΔTIR, TLR3 mutant K467E lacking the TIR domain (from UniProt O15455 24-753) (receptor) |  | wild-type TLR3 activity with the mutant at six fold molar excess (dominant negative assay): 27% |

Further lines, with some results ahead:

| wild-type TLR3 activity with the mutant at six molar excess of WT (dominant negative assay) | Substance | other results |
| --- | --- | --- |
| 61% | TLR3 mutant C37A (from UniProt O15455 24-904) (receptor) |  |
| 14% | ΔTIR, dominant negative version of TLR3 that lacks the TIR domain (from UniProt O15455 24-753) (receptor) | wild-type TLR3 activity (NF-kB luciferase reporter, poly(I:C) induced) with the mutant at 2-fold molar excess, relative to empty vector: 26%; wild-type TLR3 activity (NF-kB luciferase reporter, poly(I:C) induced) with the mutant at 6-fold molar excess, relative to empty vector: 12% |
